In paper PMC8448839 one finds response data, which are given here for 2 molecules.

The target of the test is TOR complex 1 (TORC1) in lysate of FLAG-Tor1 expressing yeast cells (TS269), P35169;P38873. As to the kind of experiment: pull-down (GST) from yeast cell lysate, western blot quantified. The conditions noted are these: chain shown with the change, read off a plot, scale: FLAG-Tor1 / GST-Pib2. For orientation: A western blot detects proteins with antibodies after separation by electrophoresis.

Where [1] appears, read: without glutamine, parent: est. 1.0.

B1: GST-Pib2(304-635), P53191 V626A (protein)
chain: LPQPASSTNLNFNSNKHKSNVRQISNPKKPLYIPAVLRKVSETNITNDDLLNATLSSYYKKASNLEHGFNPSKSQSASVQNANNLRIISSQSSVQSNTSSILESYKNKISSYLFPNSIPNSDRINLIPTISNRNSARVNPPTKDHWIPDSKRNSCRYCHKPFTLWERKHHCRHCGDIFCQDHLRHWLYLDSQANFIMINELNNGGINGGGTLCKICDDCLVEYENLSTTNHNANTNEDNINVEEGEDDDNDNRKKLRNYYKNRQMNALFRPKKGGSSQEHATVDRDTTTPIQVKSNDEEADNENTGGEQEEGNDVLGSVIGSAPANWNWSSF
Turning to B1, the response reads like this: (25 mM Gln, parent: est. 6.2) 2.7; under setting [1], 0.6.

B2: GST-Pib2(304-635), P53191 A628T (protein)
chain: LPQPASSTNLNFNSNKHKSNVRQISNPKKPLYIPAVLRKVSETNITNDDLLNATLSSYYKKASNLEHGFNPSKSQSASVQNANNLRIISSQSSVQSNTSSILESYKNKISSYLFPNSIPNSDRINLIPTISNRNSARVNPPTKDHWIPDSKRNSCRYCHKPFTLWERKHHCRHCGDIFCQDHLRHWLYLDSQANFIMINELNNGGINGGGTLCKICDDCLVEYENLSTTNHNANTNEDNINVEEGEDDDNDNRKKLRNYYKNRQMNALFRPKKGGSSQEHATVDRDTTTPIQVKSNDEEADNENTGGEQEEGNDVLGSVIGSVPTNWNWSSF
In the case of B2, the response by setting is: (25 mM Gln, parent: est. 6.2) 3.5; under setting [1], 0.6.
